Reference: the supplement of paper PMC12042874
± gives the uncertainty stated by the source.

Experiment: amyloid nucleation score (Sup35N fusion, yeast selection) (log enrichment); library NNK2; higher = more nucleation; inactive = no reads after selection
Outline: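 Output and input plasmid inserts were sequenced by Illumina after psi-negative yeast carrying Sup35N fused to peptides of 20 random codons had been induced 24 hours with 100 μM copper sulfate and grown 7 days at 30°C on medium lacking adenine and uracil. The nucleation score is the DiMSum log enrichment of output over input reads, centred on the mode score of non-aggregating sequences. Sequences with under 100 input reads were excluded.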
In the case of YFRSCDKCGAYEANHEFKTT, the amyloid nucleation score is reported as “inactive”. Substance IRVYFRDEYLKFG has an amyloid nucleation score of -0.358 ± 0.19. With MFVFRCVVRTCRSDHENDHS the amyloid nucleation score was 4.987 ± 0.049. Work on NTYYFKALT yielded an amyloid nucleation score of 0.072 ± 1.1. GVYICQFIAVISLSAQSLWY gave an amyloid nucleation score of -0.97 ± 1.1. For NKRPSRTNLWIKALVRP, the amyloid nucleation score was “inactive”. In the case of IGWFKRRSCVEFGRRRMRIL, the amyloid nucleation score is reported as -1.3 ± 1.1. GPIYLWFSFKSRCQSSCHDV gave an amyloid nucleation score of -0.866 ± 0.48. For LGRNGASYLNDSCRIPNAGK, the amyloid nucleation score was -0.562 ± 0.56. For HGSFAIMP, the amyloid nucleation score was -0.529 ± 0.45. WKGSEELRSGMAYVDGTGGE gave an amyloid nucleation score of 1.32 ± 0.39. In the case of FRILFGFRCNLRGSSQVLIG, the amyloid nucleation score is reported as “inactive”. With YCKRLKQAMPHY the amyloid nucleation score was -0.337 ± 0.63. In the case of DVAGKL, the amyloid nucleation score is reported as -0.151 ± 0.39. In the case of VLEFFLKSSF, the amyloid nucleation score is reported as 3.1 ± 0.14. Work on YNIWL yielded an amyloid nucleation score of 2.49 ± 0.12. AFYCTVC showed an amyloid nucleation score of 7.346 ± 0.043. KIFNSSSFFQL gave an amyloid nucleation score of 0.098 ± 0.65. With WIVVSSIDSFFCVSSSPQFR the amyloid nucleation score was “inactive”. In the case of VTDQVVFSEWIAADYMFDKY, the amyloid nucleation score is reported as 0.491 ± 0.52. In the case of RNIGAR, the amyloid nucleation score is reported as 0.635 ± 0.16. LVVVPTTGRVADRQWVMRNG showed an amyloid nucleation score of 0.86 ± 0.2. With NINRAQHISDVSCPDENLCI the amyloid nucleation score was 4.07 ± 0.11. ANPQSKLLNVSFIGTVQGWV showed an amyloid nucleation score of 3.04 ± 0.12. Work on FLCTNGGPLALSNGWVTSGE yielded an amyloid nucleation score of 0.274 ± 0.62. For NRWLYFHS, the amyloid nucleation score was -0.678 ± 0.76. DGDICLLRYFFLTMILELAI showed an amyloid nucleation score of -2.02 ± 0.78. YRSSLRHFSVYSYNSFSELL gave an amyloid nucleation score of 0.626 ± 0.65. For GLYNFLLSGQ, the amyloid nucleation score was “inactive”. With FLKGPTEECQLRPSLRTNLQ the amyloid nucleation score was 0.069 ± 0.23. YMSGGVRKGPIAKALNFVRS showed an amyloid nucleation score of -0.854 ± 0.56. Work on FRVPF yielded an amyloid nucleation score of 2.03 ± 0.24. With KAGLWYNCPAMYDGYLRLKA the amyloid nucleation score was 1.98 ± 0.15. Work on LNLGREYVGLKD yielded an amyloid nucleation score of 0.246 ± 0.24. For YAHRTSTA, the amyloid nucleation score was 0.342 ± 0.62. RIEIRQSLEDRLRAVSMAET gave an amyloid nucleation score of 1.64 ± 0.3. For IFSTPKTLDPVFYCL, the amyloid nucleation score was “inactive”. Substance PDGAWARLSKSGAEAYLSNF has an amyloid nucleation score of -0.299 ± 1.1. In the case of VIKTG, the amyloid nucleation score is reported as “inactive”. Work on KIHQRRVTSTANRCTILAAN yielded an amyloid nucleation score of -0.572 ± 0.76. With NCSKENKPGVIETISVGMGP the amyloid nucleation score was 1.01 ± 0.48. In the case of LTSHLYIYGMW, the amyloid nucleation score is reported as -0.766 ± 0.48. In the case of SISVKGLSGRLTVRYLLILV, the amyloid nucleation score is reported as -0.669 ± 1. YSAFHSMENQTRKMFMEPLP gave an amyloid nucleation score of -0.311 ± 0.79. With IRCLFVT the amyloid nucleation score was “inactive”. In the case of NRFDDVSDDVKTCC, the amyloid nucleation score is reported as 5.82 ± 0.059. Substance RNPNVEVCRKQFRVGCSLAN has an amyloid nucleation score of -0.931 ± 0.39. Substance TLKEGRWEVPCLIWIWRVWS has an amyloid nucleation score of 1.6 ± 0.36. In the case of KDCYNHSGRTGVVTDQKAQW, the amyloid nucleation score is reported as -0.118 ± 0.41. In the case of DDIFIRKLFQYS, the amyloid nucleation score is reported as “inactive”. KLGDWARRPCSSGPARTYGR showed an amyloid nucleation score of 0.843 ± 0.19. Work on VRNGFKMRRRMSSPVCETLL yielded an amyloid nucleation score of -0.642 ± 1.1. YMSARVMFGGEPCCCGSGGE showed an amyloid nucleation score of 1.74 ± 0.27. For IRAGAWLEICRSAVVSGPSF, the amyloid nucleation score was -0.073 ± 0.33. In the case of VPKAWTVWAQVPINWSARQA, the amyloid nucleation score is reported as 0.737 ± 0.62. For LVVVMWR, the amyloid nucleation score was 2.82 ± 0.19. In the case of HIARCNNWNACLMSRRHNCW, the amyloid nucleation score is reported as 3.6 ± 0.061. With SIARHFRGFV the amyloid nucleation score was 0.734 ± 0.47. With LLLNLRQGMTKIPIGFILLI the amyloid nucleation score was -0.64 ± 0.36. IKTSDYNHFRYWSKRPYVSW gave an amyloid nucleation score of -0.738 ± 1.1. Work on SVTGPILICVSLIASFRRSM yielded an amyloid nucleation score of 4.27 ± 0.061. Work on NDKSFSMLATE yielded an amyloid nucleation score of 0.707 ± 0.46. For SFVDMSYRFLVGVRFLVRPS, the amyloid nucleation score was “inactive”. In the case of ILVTAYTFTMVRSDEGCRKV, the amyloid nucleation score is reported as 3.63 ± 0.085. In the case of LHWGEFEYCILCARGDIKR, the amyloid nucleation score is reported as -0.755 ± 0.5. With NKRLLLMFNRWDCVVSWDKC the amyloid nucleation score was -1.31 ± 0.78. For RLSDLTQVLLDSLTRCGWWG, the amyloid nucleation score was 0.841 ± 0.43. FLSKFSCEVKTPDLMSCGKG gave an amyloid nucleation score of 4.04 ± 0.096. With WNSVIFCR the amyloid nucleation score was -0.704 ± 0.37. TSHVGL gave an amyloid nucleation score of -1.39 ± 0.49. In the case of FWIDTYGGTNFKGCICIITG, the amyloid nucleation score is reported as 4.39 ± 0.11.
